First the molecules themselves.
B1: TPR t1 (parent)
chain: GACCAAUCUGCCCUCAGAGCUCGAGAACAUCUUCGGAUGCAGAGGAGGCAGGCUUCGGUGGCGCGAUAGCGCCAACGUCCUCAACCUCCAAUGCAUCCCACCACAUGAUGAUGCCUGAAGAGCCUUGGUUUUUUG

This series covers variants of B1. Description: polymerase ribozyme fitness, log enrichment relative to wild type (log ratio); higher = more active; in vitro selection for triplet polymerase activity. The method in brief: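 After PCR construction and transcription, each subunit's mutant library from a heterodimeric triplet polymerase ribozyme was annealed with a biotinylated primer, the partner subunit and triplets. Incubation was frozen, at −7 °C, and extended constructs were gel-excised, bound to streptavidin beads and amplified by RT-PCR, in one selection round done in triplicate. Fitness is the logarithm of a genotype's enrichment divided by that of the wild type, from inverse-variance-weighted replicate averages of Illumina-sequenced inputs and outputs. The base of the logarithm is 2, and genotypes needed ≥10 input reads and ≥1 read per output.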
Turning to G39A U129C, the “polymerase ribozyme fitness (log ratio)” value was -0.434. For the variant G39U A68G C70U A121U, the “polymerase ribozyme fitness (log ratio)” value was -2.23. For the variant G39A A111C, the “polymerase ribozyme fitness (log ratio)” value is -0.291. Then U38G G128C, with -2.66; and U38G C49A U54C G69U C104A, with -0.856; and G39U G61U U106A, with -0.274. As to U38G U54G C64U, the “polymerase ribozyme fitness (log ratio)” value was -4.46. Regarding G39U C94U G113C A118C, the “polymerase ribozyme fitness (log ratio)” value was -3.27. With U38G A46U G61A U87A, the “polymerase ribozyme fitness (log ratio)” value is -0.463. As for G39U C70G, the “polymerase ribozyme fitness (log ratio)” value is -4.12. Consider U38A G58C C115A, for which the “polymerase ribozyme fitness (log ratio)” value is -1.1.

With U38A C73U C114A A121U, the “polymerase ribozyme fitness (log ratio)” value was -1.65. Then G39U A50U G60U G61A C79A, with -3.64. Next, A37U U59C C70U: -1.46. As for G39A C123A, the “polymerase ribozyme fitness (log ratio)” value was -0.277. Then G39A G93A U112G C123A, with -3.6. In the case of G39A U78C, the “polymerase ribozyme fitness (log ratio)” value was -1.06. In the case of U38G C64U A66C A90U A91C, the “polymerase ribozyme fitness (log ratio)” value is -5.32. With U38G A41U C53G C62A G113A A119C, the “polymerase ribozyme fitness (log ratio)” value is -5.91. Take G39U G61C: the “polymerase ribozyme fitness (log ratio)” value was -1.66. For U38A G69A, the “polymerase ribozyme fitness (log ratio)” value was -4.51. In the case of A37U U112A U125C, the “polymerase ribozyme fitness (log ratio)” value stood at 1.04. As to U38C G57U G117C, the “polymerase ribozyme fitness (log ratio)” value is -5.11. Take G39C G48A C49U C89A: the “polymerase ribozyme fitness (log ratio)” value is -4.19. For the variant G39U C124A, the “polymerase ribozyme fitness (log ratio)” value is 0.161. G39U G48U: the “polymerase ribozyme fitness (log ratio)” value is -1.59. On to G39A A66C C86G, for which the “polymerase ribozyme fitness (log ratio)” value is -2.29. Turning to U38A C86G A118U, the “polymerase ribozyme fitness (log ratio)” value was -1.76. As for G39C C72U, the “polymerase ribozyme fitness (log ratio)” value was -1.18. Then G39A G61A, with -0.128; and G39U A43C C62U G127A, with -4.5; and U38G C64U C80G U131C, with -6.8. As to G39C U109A G110U, the “polymerase ribozyme fitness (log ratio)” value is -3.37. Next, G39A G135C: -0.0346. As for G39U C115G, the “polymerase ribozyme fitness (log ratio)” value is -2.58. Then G39U C62A C70U, with -2.07; and G39A A83U U106A C114U, with -4.87; and U38A A43U C53U U112C G135C, with -0.362. As for G39U G63A, the “polymerase ribozyme fitness (log ratio)” value was -1.75. On to U38G U116C, for which the “polymerase ribozyme fitness (log ratio)” value is -2.06. For U38A G44U G52U C72G, the “polymerase ribozyme fitness (log ratio)” value is -4.73. With U38G G69U, the “polymerase ribozyme fitness (log ratio)” value was -0.236. In the case of G39A C104U, the “polymerase ribozyme fitness (log ratio)” value is -0.931. Next, G39A C104A: -2.08. Consider U38C G47U G61C A95C, for which the “polymerase ribozyme fitness (log ratio)” value was -3.89. With G39U G61C U130G, the “polymerase ribozyme fitness (log ratio)” value is -2.15. On to G39U A50U, for which the “polymerase ribozyme fitness (log ratio)” value is -1.79. As to G39A G45C G60U G69U C82U, the “polymerase ribozyme fitness (log ratio)” value is -5.66. In the case of U38A G45U G57U, the “polymerase ribozyme fitness (log ratio)” value is -2.52. Next, G39A G110U: -2.32; U38C U109C: -4.71; G39A C62G: -2.59. Turning to G39A C62U, the “polymerase ribozyme fitness (log ratio)” value was -0.84.

For the variant G39A C72U U78C C99U G120A U126C, the “polymerase ribozyme fitness (log ratio)” value is -2.95.

On to G39C G71U, for which the “polymerase ribozyme fitness (log ratio)” value is -0.983. For G39A G128A, the “polymerase ribozyme fitness (log ratio)” value is -2.58. Regarding G39C A43C G69U C82G U96C, the “polymerase ribozyme fitness (log ratio)” value is -3.31.

In the case of G39A C49G C62G A90C G113A, the “polymerase ribozyme fitness (log ratio)” value was -6.39. Regarding G39U G61A C101U G117A A118G U125A, the “polymerase ribozyme fitness (log ratio)” value was -0.872. Next, U38C G42U C62G: -5.61; G39U C49A C72A G93C A95C C115U: -5.1; U38C A50U: -0.941.

Consider U38A G42U G63C C79U, for which the “polymerase ribozyme fitness (log ratio)” value was -3.1. In the case of G39U C62U, the “polymerase ribozyme fitness (log ratio)” value was -1.71. Regarding G39U C49A C80U, the “polymerase ribozyme fitness (log ratio)” value is -3.62. U38C A43G C73U G93A: the “polymerase ribozyme fitness (log ratio)” value is -4.56. G39A G71C: the “polymerase ribozyme fitness (log ratio)” value was -2.63. G39A G44U C82A A95C C115G: the “polymerase ribozyme fitness (log ratio)” value is -3.83. With G39U G63C A91C G113U A121C, the “polymerase ribozyme fitness (log ratio)” value was -3.83. Next, G39A C73A G93U: -2.29; G39A G48U G71U U116A U129A: -5.41. On to G39C U54A A74G, for which the “polymerase ribozyme fitness (log ratio)” value was -0.531.

Take U38C G45A G113C U125C: the “polymerase ribozyme fitness (log ratio)” value is -3.38. For the variant G39A G48C, the “polymerase ribozyme fitness (log ratio)” value was -1.23. Consider U38A G48U G110A, for which the “polymerase ribozyme fitness (log ratio)” value is -3.21.

As to G39C G45A, the “polymerase ribozyme fitness (log ratio)” value is -0.954. For the variant U38A U133A, the “polymerase ribozyme fitness (log ratio)” value is -0.815. For the variant U38G G69C U112C, the “polymerase ribozyme fitness (log ratio)” value is -1.03.

With U38C G57A G69U U96A, the “polymerase ribozyme fitness (log ratio)” value is -3.58.

U38G A43U U87C: the “polymerase ribozyme fitness (log ratio)” value was -2.42. Then G39A G44C, with -1.34; and G39U G45A, with -2.22; and G39U C53A C82A C124G, with 1.35. As for G39A U54A, the “polymerase ribozyme fitness (log ratio)” value is -0.685.

(Values after the RNAGym collection of RNA variant scans (doi:10.1073/pnas.2313332121).)
